From the Human Domainome abundance scans (Beltran et al. 2025)
± gives the uncertainty stated by the source.

B1: CD2-associated protein, residues 109 to 169; numbered along this chain, Q9Y5K6 (parent)
chain: KKRQCKVLFEYIPQNEDELELKVGDIIDINEEVEEGWWSGTLNNKLGLFPSNFVKELEVTD

Variants of: B1
Assay: abundance fitness (aPCA) (normalised: wild type 0, dead -1); higher = more abundant; growth selection in yeast, the domain comes from the species named
Conditions: Homo sapiens

For KKRQCKVLFEYIPQNEDELELKSGDIIDINEEVEEGWWSGTLNNKLGLFPSNFVKELEVTD [V23S], which abundance fitness is on record?
The abundance fitness was -0.414 ± 0.21.

For KKRQCKVLFEYIPQNEDELELKTGDIIDINEEVEEGWWSGTLNNKLGLFPSNFVKELEVTD [V23T], which abundance fitness is on record?
The abundance fitness was -0.144 ± 0.18.

For KKRQCKVLFEYIPQNEDELLLKVGDIIDINEEVEEGWWSGTLNNKLGLFPSNFVKELEVTD [E20L], which abundance fitness is on record?
The abundance fitness was -0.157 ± 0.16.

With KKRQCKVLFEYIPQNEDELELKVGDIIRINEEVEEGWWSGTLNNKLGLFPSNFVKELEVTD [D28R] as the variant, how does the abundance fitness read?
Its abundance fitness is -0.515 ± 0.12.

With KKRQCKVLFEYIPQNEDELELKVIDIIDINEEVEEGWWSGTLNNKLGLFPSNFVKELEVTD [G24I] as the variant, how does the abundance fitness read?
The abundance fitness was -0.226 ± 0.22.

Which abundance fitness does the source give for KKRQCKVLFEYIPQNEDELELKVFDIIDINEEVEEGWWSGTLNNKLGLFPSNFVKELEVTD [G24F] here?
The abundance fitness was -0.57 ± 0.32.

For KKRQCKVLFEYIPQNEDELELKVGDIIDINEEVHEGWWSGTLNNKLGLFPSNFVKELEVTD [E34H], which abundance fitness is on record?
The abundance fitness was 0.179 ± 0.14.

With KKRQCKVLFEYIPQNEDELELKVGDIIDINEEVDEGWWSGTLNNKLGLFPSNFVKELEVTD [E34D] as the variant, how does the abundance fitness read?
The abundance fitness was -0.3 ± 0.15.

Which abundance fitness does the source give for KKRQCKVLFEYIPQNEDELELKVGDIIDINEEVEEGWWSGTLNNKLGLFPSYFVKELEVTD [N52Y] here?
The abundance fitness was -0.34 ± 0.15.

For KKRQCKVLFEYIPQNEDELELKVGDIIDINEEVEEGWWSGTLNNKLGLFPSWFVKELEVTD [N52W], which abundance fitness is on record?
The abundance fitness was -0.454 ± 0.12.

Which abundance fitness does the source give for KKRQCKVLFEYIPQNEDELELKVGDIIDINEEVEEGWWSGTLNNKLGLFPSFFVKELEVTD [N52F] here?
Its abundance fitness is -0.228 ± 0.24.

For KKRQCKVLFEYIPQNESELELKVGDIIDINEEVEEGWWSGTLNNKLGLFPSNFVKELEVTD [D17S], which abundance fitness is on record?
Its abundance fitness is 0.289 ± 0.14.

For KKRQCKVLFEYIPQNEEELELKVGDIIDINEEVEEGWWSGTLNNKLGLFPSNFVKELEVTD [D17E], which abundance fitness is on record?
The abundance fitness was 0.128 ± 0.11.

With KKRQCKVLFEYIPQNEDELELKVGDIIDINESVEEGWWSGTLNNKLGLFPSNFVKELEVTD [E32S] as the variant, how does the abundance fitness read?
Its abundance fitness is -0.091 ± 0.16.

Which abundance fitness does the source give for KKRQCKVLFEYIPQNEDELELKVGDIIDINEEVERGWWSGTLNNKLGLFPSNFVKELEVTD [E35R] here?
The abundance fitness was -0.15 ± 0.12.

For KKRQCKVLFEYIPQNEDELELKVGDIIDINEEVEEGWWEGTLNNKLGLFPSNFVKELEVTD [S39E], which abundance fitness is on record?
Its abundance fitness is -0.097 ± 0.15.

With KKRQCKVLFEYIPQNEDELELKVGDIIDINEEVEEGWWKGTLNNKLGLFPSNFVKELEVTD [S39K] as the variant, how does the abundance fitness read?
Its abundance fitness is 0.166 ± 0.091.

Which abundance fitness does the source give for KKRQCKVLFEYIPQNEDELELKVGDIIDINEEVEEGWWAGTLNNKLGLFPSNFVKELEVTD [S39A] here?
The abundance fitness was -0.349 ± 0.11.

Which abundance fitness does the source give for KKRQCKVLFEYIPQNEDELELKVGDIIDINEEVEEGWWMGTLNNKLGLFPSNFVKELEVTD [S39M] here?
Its abundance fitness is -0.126 ± 0.093.

With KKRQCKVWFEYIPQNEDELELKVGDIIDINEEVEEGWWSGTLNNKLGLFPSNFVKELEVTD [L8W] as the variant, how does the abundance fitness read?
Its abundance fitness is -0.49 ± 0.24.

Which abundance fitness does the source give for KKRQCKVTFEYIPQNEDELELKVGDIIDINEEVEEGWWSGTLNNKLGLFPSNFVKELEVTD [L8T] here?
The abundance fitness was -0.192 ± 0.14.

With KKRQCKVIFEYIPQNEDELELKVGDIIDINEEVEEGWWSGTLNNKLGLFPSNFVKELEVTD [L8I] as the variant, how does the abundance fitness read?
Its abundance fitness is 0.118 ± 0.15.

For KKRQCKVGFEYIPQNEDELELKVGDIIDINEEVEEGWWSGTLNNKLGLFPSNFVKELEVTD [L8G], which abundance fitness is on record?
Its abundance fitness is -0.133 ± 0.18.

For KKRQCKVLFEYIPQNEDELELKVGDIIDINEEVEEGWWSGTLNNKLILFPSNFVKELEVTD [G47I], which abundance fitness is on record?
The abundance fitness was -0.584 ± 0.35.

For KKTQCKVLFEYIPQNEDELELKVGDIIDINEEVEEGWWSGTLNNKLGLFPSNFVKELEVTD [R3T], which abundance fitness is on record?
The abundance fitness was -0.109 ± 0.093.

Which abundance fitness does the source give for KKKQCKVLFEYIPQNEDELELKVGDIIDINEEVEEGWWSGTLNNKLGLFPSNFVKELEVTD [R3K] here?
The abundance fitness was -0.33 ± 0.2.

Which abundance fitness does the source give for KKRQCKVLFEYIPQNEDRLELKVGDIIDINEEVEEGWWSGTLNNKLGLFPSNFVKELEVTD [E18R] here?
The abundance fitness was -0.792 ± 0.22.

With KKRQCKVLFEYIPQNEDVLELKVGDIIDINEEVEEGWWSGTLNNKLGLFPSNFVKELEVTD [E18V] as the variant, how does the abundance fitness read?
The abundance fitness was -0.989 ± 0.44.

Which abundance fitness does the source give for KKRQCKVLFEYIPQNEDMLELKVGDIIDINEEVEEGWWSGTLNNKLGLFPSNFVKELEVTD [E18M] here?
Its abundance fitness is -0.503 ± 0.2.

With KKRQCKVLFEYIPQNEDQLELKVGDIIDINEEVEEGWWSGTLNNKLGLFPSNFVKELEVTD [E18Q] as the variant, how does the abundance fitness read?
The abundance fitness was -0.395 ± 0.23.

Which abundance fitness does the source give for KKRQCKVLFEYIPQNEDELELKVGDIIDINEEVEEGWWSGTLNNKEGLFPSNFVKELEVTD [L46E] here?
The abundance fitness was 0.138 ± 0.11.

With KKRQCKVLFEYIPQNEDELELKVGDIIDINEEVEEGWWSGTLNNKTGLFPSNFVKELEVTD [L46T] as the variant, how does the abundance fitness read?
Its abundance fitness is 0.151 ± 0.055.

For KKRQCKVLFEYIPQNEDELELTVGDIIDINEEVEEGWWSGTLNNKLGLFPSNFVKELEVTD [K22T], which abundance fitness is on record?
Its abundance fitness is 0.216 ± 0.24.

For KKRQCKVLFEYIPQNEDELELRVGDIIDINEEVEEGWWSGTLNNKLGLFPSNFVKELEVTD [K22R], which abundance fitness is on record?
Its abundance fitness is -0.244 ± 0.16.

Which abundance fitness does the source give for KKRQCKVLFEYIPQNEDELELLVGDIIDINEEVEEGWWSGTLNNKLGLFPSNFVKELEVTD [K22L] here?
The abundance fitness was -0.952 ± 0.38.

Which abundance fitness does the source give for KKRQCFVLFEYIPQNEDELELKVGDIIDINEEVEEGWWSGTLNNKLGLFPSNFVKELEVTD [K6F] here?
Its abundance fitness is -0.042 ± 0.059.

For KKRQCEVLFEYIPQNEDELELKVGDIIDINEEVEEGWWSGTLNNKLGLFPSNFVKELEVTD [K6E], which abundance fitness is on record?
The abundance fitness was -0.06 ± 0.11.

With KKRQCSVLFEYIPQNEDELELKVGDIIDINEEVEEGWWSGTLNNKLGLFPSNFVKELEVTD [K6S] as the variant, how does the abundance fitness read?
Its abundance fitness is -0.084 ± 0.046.

With KKRQCKVLFEYIPQNEDELELKVGDIIDINEEVEEGWWSGTKNNKLGLFPSNFVKELEVTD [L42K] as the variant, how does the abundance fitness read?
Its abundance fitness is -0.317 ± 0.12.

Which abundance fitness does the source give for KKRQCKVLFEYIPQNEDELELKVGDIIDINEEREEGWWSGTLNNKLGLFPSNFVKELEVTD [V33R] here?
Its abundance fitness is 0.108 ± 0.17.

Which abundance fitness does the source give for KKRQCKVLFEYIPQNEDELELKVGDIIDENEEVEEGWWSGTLNNKLGLFPSNFVKELEVTD [I29E] here?
Its abundance fitness is -0.78 ± 0.36.

For KKRQCKVLFEYIPQNEDELELKVGMIIDINEEVEEGWWSGTLNNKLGLFPSNFVKELEVTD [D25M], which abundance fitness is on record?
The abundance fitness was -0.771 ± 0.49.

For KKRQCKVLFEYIPQNEDELELKVGGIIDINEEVEEGWWSGTLNNKLGLFPSNFVKELEVTD [D25G], which abundance fitness is on record?
The abundance fitness was -0.835 ± 0.24.
